# Reference: patent publication US20210386836
# B1: PrtISS-HT (protein)
# chain: MRKKWVATAIIALASGSTVFLSQTSSVEAAIGETSVQNVKVSVAKNESDSQKFNNSQNLEQKTPQAAAANQNGSQVQNDHTETQLQNQQTTQSQVTQAHTEENNASSIPEPANQADHVKGNVQSAWDQGYKGQNTVVAVIDSGADTSHKDFQTMPSNPKLKQEDVQSKIDQQGYGKYVNEKFPYVYNYADRDNDYIKSDDNNQXNDSPHGQHVSGIIAADGHPEGDQQYVVGVAPEAQLMQLRVFGQFSDEKTDDVARAIYDATNLGADVIQMSLGQGVADQQLTNIEQKAVQYAIDHGVFVSISASNNGNSASVDNPSKVTAKGYGSGSEAGNYEPLNSGTVANPGASKNALTVAAETSGTGKDSDMASFSSWGPLSDFSLKPDLSAPGYQVVSTVNDNQYQTMSGTSMAGPFAAGSAALVIQRLKQTNPELKGAELVAATKALLMNSAKVQTQNGYTTPVSPRRQGAGQIDVGAATANPVYVTAADGTSSLSLRQVDEKTTFTLTFHNLTDQEQSYSFNDLGGGYTEQRDPDSGVFHEVQLAGAHVNGVGNFTLAPKEVKDLQYTLDLQGLNKNQPVEGWLHFTNDKDKSTVVVPYLAYYGDLTSENVFDQNANEEKPDIQGNRFVNENNYPLGVTDQESLKQLVNVDSDYNWQEVAKLYESGKVAFSPNDDHQSDLIKPYAYLKQNVKDLKVEILDAKGNVVRVVSDVQGVDKSYDESGVTKDASLSVSMRDNPDAFEWDGKVYDTKTGQMVTAPDGQYTYRFVATLWNEGPNQKQTADFPVVVDTQAPSLSVKYDSATHTLSGNYEDKGAGFTDYSYVTVQVNDKVFGYKLNEGESGFDNSEKTKGHFNFTLSSDALDALSGSLNKVSVTLSDVANNTTVKTVDVPAVKDQPAVSVWNATEGVEFNKNSKDYNKENDTYTLYGSAAQDFYLNGALVQVRDGKYEVPVKTTTQDLVFSTDQAGKNVLKSFTTFTPKAFFNWQNVDGFDGNFGVNIYSVKTNDPNNAVVQAAVPLGKNVKAYAQDYFTGEVYKGQVENGVATFHVHTSINQGEDGIFKRALLTGWSEVDGPAYNDKQVTSKAGVASSNHLGVYYTTDKVNRKVYTDRADLGVDVQDEAADLSSFGPTAYPGHALADLTTRTDPNPAIHFDYLNDNDTTRFGQNAVTDGYYDSVTKKFTVTGHVDPEVKSLTVLGDSSDENAPQNQVKLGKDGKFSFSFTTENVGQRPVAYIYTDQNGQKVRGTLNVVLDTVAPTLNVDQVNGNELEVKTNNPLFKLSGVVNDNLDGYRLYVNGNNIYREFLNSGYNKLAGLNTDGTDVNPYGPHNFEESFNLNDDNNQPTTHVFTIYVVDQVGNKVEKKIAVNYDPDYVAPRHHHHHH
# modifications: not fully specified; X: residue not identified in the source
# Biological target: C3a, P01024
# Sequence (P01024 672-748): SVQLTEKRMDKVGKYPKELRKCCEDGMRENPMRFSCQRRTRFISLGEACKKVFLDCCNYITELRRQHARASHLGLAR
protein,measurement,value
B1,proteolytic degradation assay (SDS-PAGE),displayed activity against hC3a
